Consider 1 molecule from US20210047418A1 (VESTLANDETS INNOVASJONSSELSKAP, published 2021).

Experiment [1] has as its target T1, human integrin α11-EGFP (human, UniProt Q9UKX5 23-1188).
T1 construct: whole, on cells; Fusion of about 180 kDa by the legend; In the Western blot it stood as denatured protein from cell lysate; also called hu α11-EGFP; C2C12-hu α11-EGFP; not shown: EGFP tag
T1 sequence (looked up): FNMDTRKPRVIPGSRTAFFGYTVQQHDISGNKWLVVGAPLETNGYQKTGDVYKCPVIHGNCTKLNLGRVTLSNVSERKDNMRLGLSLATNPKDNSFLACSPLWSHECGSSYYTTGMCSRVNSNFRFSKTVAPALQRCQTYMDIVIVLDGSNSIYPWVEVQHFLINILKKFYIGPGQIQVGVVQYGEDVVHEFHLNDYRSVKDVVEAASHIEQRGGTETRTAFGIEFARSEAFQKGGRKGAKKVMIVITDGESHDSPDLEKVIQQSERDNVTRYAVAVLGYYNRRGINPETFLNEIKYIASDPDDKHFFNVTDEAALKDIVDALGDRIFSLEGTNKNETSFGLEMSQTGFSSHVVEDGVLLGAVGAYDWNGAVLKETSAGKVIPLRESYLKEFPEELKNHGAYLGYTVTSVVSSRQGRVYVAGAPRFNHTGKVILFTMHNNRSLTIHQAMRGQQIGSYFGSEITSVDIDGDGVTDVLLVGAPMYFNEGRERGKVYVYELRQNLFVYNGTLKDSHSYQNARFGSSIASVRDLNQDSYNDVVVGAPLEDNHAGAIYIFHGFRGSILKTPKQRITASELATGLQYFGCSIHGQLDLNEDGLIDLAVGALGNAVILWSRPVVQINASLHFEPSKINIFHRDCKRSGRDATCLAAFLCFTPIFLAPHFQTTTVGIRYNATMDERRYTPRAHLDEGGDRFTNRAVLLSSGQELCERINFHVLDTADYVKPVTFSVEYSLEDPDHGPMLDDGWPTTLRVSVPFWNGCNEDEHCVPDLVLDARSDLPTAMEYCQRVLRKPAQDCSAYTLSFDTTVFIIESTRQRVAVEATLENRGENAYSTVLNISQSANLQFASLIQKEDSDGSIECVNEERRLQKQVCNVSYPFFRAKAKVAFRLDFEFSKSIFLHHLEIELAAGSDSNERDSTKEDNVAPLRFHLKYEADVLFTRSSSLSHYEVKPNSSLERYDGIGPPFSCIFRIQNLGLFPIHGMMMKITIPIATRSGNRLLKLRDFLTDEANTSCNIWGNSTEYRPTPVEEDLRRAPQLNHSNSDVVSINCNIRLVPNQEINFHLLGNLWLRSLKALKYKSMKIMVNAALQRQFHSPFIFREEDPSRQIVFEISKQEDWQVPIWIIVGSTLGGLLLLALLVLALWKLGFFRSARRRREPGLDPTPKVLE
Nature of the experiment: Western blot on C2C12-hu α11-EGFP lysate (FIG. 1D).

For experiment [2], the target named is T2, human integrin α11 subunit (human, UniProt Q9UKX5 23-1188).
T2 construct: whole, on cells; In C2C12-α11 cells and their lysates the human α11 chain is present as α11β1 heterodimer (the legend says 'Immunoprecipitation of integrin α11β1'); the β1 partner in the mouse cells is not described; In the staining and blot experiments cells were methanol fixed, lysed or the tissue was formalin fixed and paraffin embedded; also called alpha-11 integrin subunit; integrin chain α11
T2 sequence (looked up): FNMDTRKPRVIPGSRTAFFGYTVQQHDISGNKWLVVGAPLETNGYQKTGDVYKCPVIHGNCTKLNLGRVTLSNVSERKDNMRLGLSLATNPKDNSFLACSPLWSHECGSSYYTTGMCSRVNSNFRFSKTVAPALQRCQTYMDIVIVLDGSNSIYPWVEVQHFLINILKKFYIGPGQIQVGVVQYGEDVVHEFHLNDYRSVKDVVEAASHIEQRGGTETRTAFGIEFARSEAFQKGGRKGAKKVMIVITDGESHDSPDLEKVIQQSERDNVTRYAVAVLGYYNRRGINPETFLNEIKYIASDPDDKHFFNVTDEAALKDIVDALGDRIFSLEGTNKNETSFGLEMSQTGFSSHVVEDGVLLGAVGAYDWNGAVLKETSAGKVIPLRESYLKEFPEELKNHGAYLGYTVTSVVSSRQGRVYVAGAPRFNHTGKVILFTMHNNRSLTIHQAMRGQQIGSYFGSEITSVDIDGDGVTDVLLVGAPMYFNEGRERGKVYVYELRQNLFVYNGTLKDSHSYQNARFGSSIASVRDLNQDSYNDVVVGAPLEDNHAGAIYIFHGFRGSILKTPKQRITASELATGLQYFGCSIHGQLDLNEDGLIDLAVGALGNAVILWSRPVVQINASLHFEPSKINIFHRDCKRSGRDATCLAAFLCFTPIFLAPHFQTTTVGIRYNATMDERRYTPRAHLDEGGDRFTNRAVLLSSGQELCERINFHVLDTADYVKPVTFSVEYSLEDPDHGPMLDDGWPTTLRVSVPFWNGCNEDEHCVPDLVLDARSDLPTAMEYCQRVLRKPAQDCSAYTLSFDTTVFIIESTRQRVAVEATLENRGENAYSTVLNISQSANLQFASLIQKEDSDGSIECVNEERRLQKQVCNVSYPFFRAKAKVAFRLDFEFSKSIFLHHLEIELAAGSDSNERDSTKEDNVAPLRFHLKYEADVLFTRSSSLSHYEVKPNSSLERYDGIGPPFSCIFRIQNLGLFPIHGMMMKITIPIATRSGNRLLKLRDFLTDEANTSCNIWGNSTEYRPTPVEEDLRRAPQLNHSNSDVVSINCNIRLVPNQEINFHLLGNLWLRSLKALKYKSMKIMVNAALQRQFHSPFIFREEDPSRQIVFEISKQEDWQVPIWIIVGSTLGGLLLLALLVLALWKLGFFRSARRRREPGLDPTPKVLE
In words: immunoprecipitation from C2C12-α11 cell lysate, Western blot detection with the polyclonal α11 antibody (FIG. 1C). As for the experimental part:
FIG. 1. Immunological characterization of 210F4B6A4 mAb [0019] A-B. C2C12 mouse myoblast cells expressing human integrin α11-EGFP or WT (wildtype) C2C12 cells were stained with 210F4B6A4 mAb for 1 hour at 4° C. Cells were then washed and stained with goat anti-mouse R-Phycoerythrin IgG. Samples were analysed by flow cytometry using Intellicyt iQue and fluorescence intensity was measured. [0020] C. Immunoprecipitation (IP) of integrin α11β1 with the 210F4B6A4 mAb and the polyclonal α11 antibody (α11 pAb)[5]. Protein bands of integrin chain α11 at the expected size after immunoprecipitation using α11 antibodies followed by Western blotting and detection using the polyclonal α11 antibody. [0021] D. Western-blotting (WB) using the α11 210F4B6A4 mAb on C2C12-hu α11-EGFP lysate, shown is the protein band of expected size of aα11-EGFP (180 kDa). [0022] E. C2C12 mouse myoblast cells expressing human integrin α11 were allowed to attach on collagen I-cocated coverslips for 2 hours, cell were then fixed with methanol and incubated with 210F4B6A4 mAb or control IgG. Bound antibody was detected using goat anti-mouse Alexa Fluor 594. Integrin α11 staining in cell focal adhesions is indicated by white arrowheads. […]

B1: monoclonal mouse anti-human integrin alpha-11 antibody clone 210 F4B6A4 produced by the hybridoma deposited as DSM ACC3320 (antibody, V domains shown)
VH: EVQLQQSGAELVRPGASVKVSCTASGFNIKDDYIHWMRRRPAQGLEWIGWIDPENGDTEYASNFQGKATTTVDVSSNTAYLQLSRLTSEDTAIYYCSREYAYWGQGTLVTVSA
VL: DVVMTQTPLSLPVSLGDQASISCRSSQSLLYSNGNTYLQWYLQKPGQSPKLLIYRASNRFSGVPDRFSGSGSGTDFTLKISRVEAEDLGVYFCSQSTHVPWTFGGGTKLEIK
notes: Mouse monoclonal antibody from hybridoma (used partly as hybridoma supernatant); also called 210F4B6A4 mAb; F210F4B6A4
For B1, the binding result in experiment [1] and in experiment [2] was “binds” throughout.
